Experimental data as given in the FLAb antibody collection (doi:10.7554/elife.23156).

B1: scFv; the commonest letter at each place (parent)
chain 1: EVKLDETGGGLVQPGRPMKLSCVASGFTFSDYWMNWVRQSPEKGLEWVAQIRNKPYNYETYYSDSVKGRFTISRDDSKSSVYLQMNNLRVEDMGIYYCTGSYYGMDYWGQGTSVTVS
chain 2: DVVMTQTPLSLPVSLGDQASISCRSSQSLVHSNGNTYLRWYLQKPGQSPKVLIYKVSNRFSGVPDRFSGSGSGTDFTLKISRVEAEDLGVYFCSQSTHVPWTFGGGTKLEIK

Tests used:
fluorescein = variants of: B1; test: Kd (Tite-Seq); conditions: with fluorescein; format: scFv 4-4-20, heavy + light
[1] = variants of: B1; test: yeast surface expression (ratio to wild type); higher = more expressed; conditions: format: scFv 4-4-20, heavy + light

Variant: chain 1 D31C M34E
- Kd (fluorescein): 0.579 µM
- yeast surface expression [1]: 0.778

Variant: chain 1 W108P
- Kd (fluorescein): 0.00272 µM
- yeast surface expression [1]: 0.625

Variant: chain 1 W108N
- Kd (fluorescein): 0.031 µM
- yeast surface expression [1]: 0.468

Variant: chain 1 F29Q S30G
- Kd (fluorescein): 0.0391 µM
- yeast surface expression [1]: 0.863

Variant: chain 1 T28P F29V
- Kd (fluorescein): 0.00708 µM
- yeast surface expression [1]: 0.927

Variant: chain 1 T28I N35R
- Kd (fluorescein): ≥ 10 µM
- yeast surface expression [1]: 0.849

Variant: chain 1 S30W N35V
- Kd (fluorescein): ≥ 10 µM
- yeast surface expression [1]: 0.273

Variant: chain 1 T28V S30Q
- Kd (fluorescein): 0.000989 µM
- yeast surface expression [1]: 1.1

Variant: chain 1 G100M S101V
- Kd (fluorescein): ≥ 10 µM
- yeast surface expression [1]: 0.549

Variant: chain 1 S101C M105I
- Kd (fluorescein): ≥ 10 µM
- yeast surface expression [1]: 0.826

Variant: chain 1 G104F Y107Q
- Kd (fluorescein): ≥ 10 µM
- yeast surface expression [1]: 0.401

Variant: chain 1 F29E N35I
- Kd (fluorescein): 0.00672 µM
- yeast surface expression [1]: 0.276

Variant: chain 1 F29L M34K W36P
- Kd (fluorescein): 0.228 µM
- yeast surface expression [1]: 0.61

Variant: chain 1 D31S V37H
- Kd (fluorescein): 9.02 µM
- yeast surface expression [1]: 0.644

Variant: chain 1 Y102S M105N
- Kd (fluorescein): 0.0038 µM
- yeast surface expression [1]: 1.31

Variant: chain 1 T28A Y32K
- Kd (fluorescein): 3.55 µM
- yeast surface expression [1]: 1.02

Variant: chain 1 G100N G104W
- Kd (fluorescein): ≥ 10 µM
- yeast surface expression [1]: 0.281

Variant: chain 1 M105P W108S
- Kd (fluorescein): ≥ 10 µM
- yeast surface expression [1]: 0.621

Variant: chain 1 D106W
- Kd (fluorescein): ≥ 10 µM
- yeast surface expression [1]: 0.339

Variant: chain 1 D106F
- Kd (fluorescein): ≥ 10 µM
- yeast surface expression [1]: 0.325

Variant: chain 1 W33V N35Q
- Kd (fluorescein): ≥ 10 µM
- yeast surface expression [1]: 0.772

Variant: chain 1 S101D D106K
- Kd (fluorescein): ≥ 10 µM
- yeast surface expression [1]: 0.435

Variant: chain 1 D106F G109A
- Kd (fluorescein): ≥ 10 µM
- yeast surface expression [1]: 0.112

Variant: chain 1 Y32P
- Kd (fluorescein): ≥ 10 µM
- yeast surface expression [1]: 0.908

Variant: chain 1 W33C M34C W36A
- Kd (fluorescein): ≥ 10 µM
- yeast surface expression [1]: 0.449

Variant: chain 1 S30R M34C
- Kd (fluorescein): 0.00444 µM
- yeast surface expression [1]: 0.668

Variant: chain 1 G100C W108T
- Kd (fluorescein): 0.000846 µM
- yeast surface expression [1]: 0.565

Variant: chain 1 G100S Y102T
- Kd (fluorescein): 0.0233 µM
- yeast surface expression [1]: 0.74

Variant: chain 1 N35Y W36Y V37D
- Kd (fluorescein): ≥ 10 µM
- yeast surface expression [1]: 1.04

Variant: chain 1 F29P V37W
- Kd (fluorescein): ≥ 10 µM
- yeast surface expression [1]: 0.685

Variant: chain 1 G100W W108V
- Kd (fluorescein): 0.15 µM
- yeast surface expression [1]: 0.251

Variant: chain 1 Y103G Y107W
- Kd (fluorescein): 0.0221 µM
- yeast surface expression [1]: 1.21

Variant: chain 1 Y32I W36G
- Kd (fluorescein): ≥ 10 µM
- yeast surface expression [1]: 0.465

Variant: chain 1 S101L Y103K
- Kd (fluorescein): ≥ 10 µM
- yeast surface expression [1]: 0.524

Variant: chain 1 S101L Y103I
- Kd (fluorescein): ≥ 10 µM
- yeast surface expression [1]: 0.229

Variant: chain 1 S30F N35H
- Kd (fluorescein): ≥ 10 µM
- yeast surface expression [1]: 0.53

Variant: chain 1 F29N V37T
- Kd (fluorescein): ≥ 10 µM
- yeast surface expression [1]: 0.668

Variant: chain 1 D31A W36H
- Kd (fluorescein): ≥ 10 µM
- yeast surface expression [1]: 0.137

Variant: chain 1 Y103S W108R
- Kd (fluorescein): ≥ 10 µM
- yeast surface expression [1]: 0.441

Variant: chain 1 S101F M105G
- Kd (fluorescein): ≥ 10 µM
- yeast surface expression [1]: 0.559

Variant: chain 1 T28E V37T
- Kd (fluorescein): 0.00493 µM
- yeast surface expression [1]: 0.693

Variant: chain 1 D31L Y32M W36M
- Kd (fluorescein): ≥ 10 µM
- yeast surface expression [1]: 0.543

Variant: chain 1 Y32S N35E V37Q
- Kd (fluorescein): ≥ 10 µM
- yeast surface expression [1]: 0.677

Variant: chain 1 G100T M105C
- Kd (fluorescein): ≥ 10 µM
- yeast surface expression [1]: 0.754

Variant: chain 1 W33M V37L
- Kd (fluorescein): ≥ 10 µM
- yeast surface expression [1]: 0.553

Variant: chain 1 G104D G109L
- Kd (fluorescein): ≥ 10 µM
- yeast surface expression [1]: 0.236

Variant: chain 1 Y102S G109L
- Kd (fluorescein): ≥ 10 µM
- yeast surface expression [1]: 0.228

Variant: chain 1 Y102H M105P
- Kd (fluorescein): ≥ 10 µM
- yeast surface expression [1]: 0.764

Variant: chain 1 Y103D D106R
- Kd (fluorescein): ≥ 10 µM
- yeast surface expression [1]: 0.454

Variant: chain 1 Y32S W36F
- Kd (fluorescein): 5.96 µM
- yeast surface expression [1]: 0.853

Variant: chain 1 S30R W33F M34V
- Kd (fluorescein): 0.105 µM
- yeast surface expression [1]: 0.767

Variant: chain 1 M105G D106Q
- Kd (fluorescein): ≥ 10 µM
- yeast surface expression [1]: 0.514

Variant: chain 1 S101Y Y107P
- Kd (fluorescein): ≥ 10 µM
- yeast surface expression [1]: 0.489

Variant: chain 1 Y102I W108N
- Kd (fluorescein): ≥ 10 µM
- yeast surface expression [1]: 0.316

Variant: chain 1 G104M M105R
- Kd (fluorescein): ≥ 10 µM
- yeast surface expression [1]: 0.619

Variant: chain 1 D31N
- Kd (fluorescein): 0.000825 µM
- yeast surface expression [1]: 1.1

Variant: chain 1 D31A
- Kd (fluorescein): 0.00343 µM
- yeast surface expression [1]: 0.772

Variant: chain 1 D31K
- Kd (fluorescein): 0.00154 µM
- yeast surface expression [1]: 0.867

Variant: chain 1 S101K Y107V
- Kd (fluorescein): ≥ 10 µM
- yeast surface expression [1]: 0.507

Variant: chain 1 M105E G109W
- Kd (fluorescein): ≥ 10 µM
- yeast surface expression [1]: 0.278

Variant: chain 1 W33M W36P
- Kd (fluorescein): ≥ 10 µM
- yeast surface expression [1]: 0.591

Variant: chain 1 T28W F29M
- Kd (fluorescein): 0.0139 µM
- yeast surface expression [1]: 0.897

Variant: chain 1 T28W F29R
- Kd (fluorescein): ≥ 10 µM
- yeast surface expression [1]: 0.615

Variant: chain 1 G100P G109S
- Kd (fluorescein): ≥ 10 µM
- yeast surface expression [1]: 0.485

Variant: chain 1 D31P W33S
- Kd (fluorescein): ≥ 10 µM
- yeast surface expression [1]: 0.352

Variant: chain 1 Y102E G104N
- Kd (fluorescein): ≥ 10 µM
- yeast surface expression [1]: 0.819

Variant: chain 1 Y32W W33P
- Kd (fluorescein): ≥ 10 µM
- yeast surface expression [1]: 0.825

Variant: chain 1 D106I W108S
- Kd (fluorescein): ≥ 10 µM
- yeast surface expression [1]: 0.397

Variant: chain 1 F29H N35V
- Kd (fluorescein): 0.00251 µM
- yeast surface expression [1]: 2.76

Variant: chain 1 D31N V37I
- Kd (fluorescein): 0.00325 µM
- yeast surface expression [1]: 0.855

Variant: chain 1 Y103I G109V
- Kd (fluorescein): ≥ 10 µM
- yeast surface expression [1]: 0.222

Variant: chain 1 S101K Y103T
- Kd (fluorescein): ≥ 10 µM
- yeast surface expression [1]: 0.456

Variant: chain 1 S30G N35P W36F
- Kd (fluorescein): ≥ 10 µM
- yeast surface expression [1]: 0.718

Variant: chain 1 F29M
- Kd (fluorescein): 0.00251 µM
- yeast surface expression [1]: 1.21

Variant: chain 1 M34E N35H
- Kd (fluorescein): 0.195 µM
- yeast surface expression [1]: 0.4

Variant: chain 1 F29S D31Y
- Kd (fluorescein): 0.00343 µM
- yeast surface expression [1]: 0.752

Variant: chain 1 Y103V D106H
- Kd (fluorescein): ≥ 10 µM
- yeast surface expression [1]: 0.384

Variant: chain 1 Y102A M105T
- Kd (fluorescein): 0.176 µM
- yeast surface expression [1]: 1.08

Variant: chain 1 Y102A M105F
- Kd (fluorescein): 0.00575 µM
- yeast surface expression [1]: 0.979

Variant: chain 1 N35Q
- Kd (fluorescein): ≥ 10 µM
- yeast surface expression [1]: 0.814

Variant: chain 1 Y32V V37K
- Kd (fluorescein): 7.72 µM
- yeast surface expression [1]: 0.425

Variant: chain 1 W33N N35T
- Kd (fluorescein): ≥ 10 µM
- yeast surface expression [1]: 0.979

Variant: chain 1 M105C D106S
- Kd (fluorescein): 3.37 µM
- yeast surface expression [1]: 0.728

Variant: chain 1 T28V F29Q
- Kd (fluorescein): 0.004 µM
- yeast surface expression [1]: 0.917

Variant: chain 1 S30I W36V V37Q
- Kd (fluorescein): ≥ 10 µM
- yeast surface expression [1]: 0.525

Variant: chain 1 T28N F29R
- Kd (fluorescein): ≥ 10 µM
- yeast surface expression [1]: 0.996

Variant: chain 1 D31P W36I
- Kd (fluorescein): ≥ 10 µM
- yeast surface expression [1]: 0.513

Variant: chain 1 F29P D31R
- Kd (fluorescein): 0.0259 µM
- yeast surface expression [1]: 0.86

Variant: chain 1 G104A M105E
- Kd (fluorescein): ≥ 10 µM
- yeast surface expression [1]: 0.648

Variant: chain 1 G100R S101H
- Kd (fluorescein): ≥ 10 µM
- yeast surface expression [1]: 0.282

Variant: chain 1 Y102H G109P
- Kd (fluorescein): ≥ 10 µM
- yeast surface expression [1]: 0.281

Variant: chain 1 Y32C M34T
- Kd (fluorescein): ≥ 10 µM
- yeast surface expression [1]: 0.664

Variant: chain 1 Y102N Y103C
- Kd (fluorescein): 4.14 µM
- yeast surface expression [1]: 0.692

Variant: chain 1 G104Y Y107H
- Kd (fluorescein): ≥ 10 µM
- yeast surface expression [1]: 0.59

Variant: chain 1 G109M
- Kd (fluorescein): ≥ 10 µM
- yeast surface expression [1]: 0.213

Variant: chain 1 F29S W33H
- Kd (fluorescein): ≥ 10 µM
- yeast surface expression [1]: 0.724

Variant: chain 1 M105V W108D
- Kd (fluorescein): ≥ 10 µM
- yeast surface expression [1]: 0.437

Variant: chain 1 T28E F29Y
- Kd (fluorescein): 0.00468 µM
- yeast surface expression [1]: 1.01

Variant: chain 1 M105V D106Y
- Kd (fluorescein): ≥ 10 µM
- yeast surface expression [1]: 0.489

Variant: chain 1 G104F D106K
- Kd (fluorescein): ≥ 10 µM
- yeast surface expression [1]: 0.201

Variant: chain 1 G100Y S101P
- Kd (fluorescein): ≥ 10 µM
- yeast surface expression [1]: 0.251

Variant: chain 1 Y32R M34W V37M
- Kd (fluorescein): ≥ 10 µM
- yeast surface expression [1]: 0.728

Variant: chain 1 T28L D31G
- Kd (fluorescein): 0.00128 µM
- yeast surface expression [1]: 0.717

Variant: chain 1 T28L D31L
- Kd (fluorescein): 0.0221 µM
- yeast surface expression [1]: 0.425

Variant: chain 1 Y102V D106N
- Kd (fluorescein): 0.00215 µM
- yeast surface expression [1]: 0.889

Variant: chain 1 M105C G109V
- Kd (fluorescein): ≥ 10 µM
- yeast surface expression [1]: 0.171

Variant: chain 1 M105Q G109Y
- Kd (fluorescein): ≥ 10 µM
- yeast surface expression [1]: 0.231

Variant: chain 1 S101A D106L
- Kd (fluorescein): 0.00166 µM
- yeast surface expression [1]: 0.302

Variant: chain 1 S101R G109M
- Kd (fluorescein): ≥ 10 µM
- yeast surface expression [1]: 0.251

Variant: chain 1 D31R Y32A
- Kd (fluorescein): 0.0944 µM
- yeast surface expression [1]: 0.863

Variant: chain 1 W33E N35G
- Kd (fluorescein): ≥ 10 µM
- yeast surface expression [1]: 1.05

Variant: chain 1 Y107S W108D
- Kd (fluorescein): ≥ 10 µM
- yeast surface expression [1]: 0.322

Variant: chain 1 F29G Y32Q
- Kd (fluorescein): ≥ 10 µM
- yeast surface expression [1]: 0.991

Variant: chain 1 M34D
- Kd (fluorescein): ≥ 10 µM
- yeast surface expression [1]: 0.406

Variant: chain 1 M34F
- Kd (fluorescein): 0.00226 µM
- yeast surface expression [1]: 0.988
